B1: GLTSCR2 (parent)
chain: FQRRNMIEPRERAKFKRKYKVKLV

Variants of: B1
Experiment: protein stability index of a GFP-peptide fusion (GPS, HEK-293T) (PSI 1-6); higher = more stable
Conditions: c terminus: a fixed tail appended
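Further: lentivirally expressed fusions sorted by FACS into six bins by GFP to DsRed ratio, PSI derived from sequencing read proportions per bin multiplied by bin number.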

Protein stability index, by site and new letter:
F15: G 2.96; H 3.14; A 2.65; E 2.97; D 2.32; C 2.67
E11: K 2.41; D 2.53; H 2.18; F 2.37; Y 1.91; R 2.23; P 2.66; A 2.54; L 2.63; G 2.4; M 2.37; T 2.59; N 2.6; I 1.6; C 2.36; W 2.81; V 1.88; S 2.2; Q 2.25
M6: N 2.27; L 1.63; V 2.14; K 2.52; S 3.25; Q 2.74; P 2.25; R 2.92; W 3.61; Y 2.48; T 3.15
E8: I 2.02; G 2.18; F 1.82; A 2.7; D 2.13; H 2.33; Q 1.64; V 2.25; Y 2.23; K 2.35; P 2.42; L 2.27; W 1.91; N 2.3; C 3.15; R 1.83; S 2.04; M 2.34; T 2.05
A13: V 3.38; E 2.56; F 1.64; D 1.7; Q 2.35; M 2.08; R 2.72; S 2.32; W 1.61; G 2.08; C 1.98; T 2.03; Y 2.68; K 2.37; N 3.21; L 2.29; I 2.13; H 2.74; P 2.02
P9: T 1.99; H 2.47; A 3.52; K 2.52; I 2.4; R 2.5; C 2.14; F 2.4; M 2.06; G 1.71; S 2.33; D 2.15; L 1.78; V 2.19; W 2.01; N 2.34; Y 1.67; Q 2.38
R10: S 2.13; F 2; M 1.92; A 2.56; H 1.95; L 2.47; K 2.28; W 1.76; T 1.99; G 2.12; N 1.63; P 2.2; V 1.58; I 2.11; C 3.03; Y 2.17; D 2.58; Q 1.53; E 1.98
R12: C 2; D 2.31; M 2.69; I 3.04; N 2.45; G 2.6; Y 1.79; L 1.79; E 2.5; F 1.47; V 1.5; K 2.41; T 2.15; H 2.19; A 1.87; S 1.84; Q 2.43; P 1.72
I7: G 2.35; S 3.04; H 1.87; A 2.15; R 2.46; E 2.22; C 2.78; L 1.99; T 2.31; D 3.27; W 1.9; P 2.25; V 2.24; N 2.64; Q 2.24; M 2.67; Y 1.92; F 2.2; K 2.1
K14: S 2.3; M 1.97; H 2.03; W 2.85; D 2.09; L 1.82; V 2.17; G 1.39; E 2.74; F 2.77; R 2.02; C 1.26; Y 2.39; T 2.33; A 1.81; I 2.5; P 1.68; Q 1.99; N 2.02
